What was measured:
[1] = biological target: human epidermal growth factor receptor (human EGFR) (human) (UniProt P00533); experiment: flow cytometry, BD FACS Aria; WI-38 cells stained with PE-anti hEGFR antibody for 30 minutes on ice
[2] = biological target: human epidermal growth factor receptor (human EGFR) (human) (UniProt P00533); experiment: flow cytometry, BD FACS Aria; RencaEGFR M1 H cells (human EGFR on the cell surface) stained with PE-anti hEGFR antibody for 30 minutes on ice
[3] = biological target: human epidermal growth factor receptor (human EGFR) (human) (UniProt P00533); experiment: flow cytometry, BD FACS Aria; MCF-7 cells (low EGFR expression) stained with PE-anti hEGFR antibody for 30 minutes on ice
[4] = biological target: human epidermal growth factor receptor (human EGFR) (human) (UniProt P00533); experiment: flow cytometry, Beckman Coulter CytoFLEX S; U87MG cells stained with PE-anti hEGFR antibody for 30 minutes on ice
[5] = biological target: human epidermal growth factor receptor (human EGFR) (human) (UniProt P00533); experiment: flow cytometry, Beckman Coulter CytoFLEX S; WI-38 cells stained with PE-anti hEGFR antibody for 30 minutes on ice

PE-anti hEGFR antibody (Biolegend, Cat #352904)
MFI [1]: 53300 | MFI [2]: 834000 | MFI [3]: 2670 | MFI [4]: 1020 | MFI [5]: 1100
